Molecular target: Recombinant Cdc42 (residues 1-178) from Candida Albicans (Candida albicans) (UniProt P0CY33)
Experiment: method not stated; the complexes give no response in relaxation dispersion

Recombinant Cdc42 (residues 1-178) from Candida Albicans (Candida albicans), sequence (P0CY33 1-178 limits assumed): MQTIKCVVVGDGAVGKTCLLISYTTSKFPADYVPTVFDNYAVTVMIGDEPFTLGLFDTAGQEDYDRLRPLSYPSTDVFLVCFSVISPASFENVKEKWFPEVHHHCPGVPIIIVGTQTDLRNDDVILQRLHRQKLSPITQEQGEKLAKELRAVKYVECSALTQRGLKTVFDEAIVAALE

Row | Substance | Kd [nM]
1 | 40-residue CRIB domain of Candida Ste20 (peptide) | 0.5
2 | 40-residue CRIB domain of Candida Cla4 (peptide) | 0.5

From patent US20050287527A1, “Quantitative ranking of transient ligand binding to target biomolecules” (National Research Council of Canada, priority 2002, published 2005)
